In the supplement of paper PMC6757056:
± gives the standard deviation of the averaged measurements.

B1: library; a variant is named by its letters at N, in order (parent)
chain: GCUGUCACCGGUGCUUGGUACGUUAUAUUCAGCCGGUCUGAUGAGUCUNNNNNNAGACGAAACAGC

Tests used:
(6R,S)-folinic acid [1] = variants of: B1; test: normalized RNA/DNA level without ligand (relative to sTRSVctl = 100) (log10 (% of sTRSVctl)); HEK293T overexpressing SLC46A1; higher = less ribozyme self-cleavage, higher mRNA level; settings: without (6R,S)-folinic acid; ligand present: no
Procedure, shortened: (§1)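 Ribozyme switch library plasmids linked to reporters were introduced into HEK293T cells at 4 µg per 6-well well, with ligand, if any, added 1 h before. Total RNA was extracted with EDTA 72 h later, reverse-transcribed, amplified, barcoded and sequenced. RNA level was computed from RNA over DNA reads relative to a spiked-in non-cleaving sequence or the top sequences, then scaled and log-transformed. The top set was 25 sequences, values were ×100 and log10, and the cutoff was ≥100 DNA reads.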

(6R,S)-folinic acid [2] = variants of: B1; test: normalized RNA/DNA level with ligand (relative to sTRSVctl = 100) (log10 (% of sTRSVctl)); HEK293T overexpressing SLC46A1; ligand concentration (+) RNA-Seq: 6 mM; higher = less ribozyme self-cleavage, higher mRNA level; settings: with (6R,S)-folinic acid; ligand present: yes
Procedure, shortened: as §1

Variant | normalized RNA/DNA level without ligand (log10) ((6R,S)-folinic acid [1]) | normalized RNA/DNA level with ligand (log10) ((6R,S)-folinic acid [2])
GUGGAG | 1.86 ± 0.027 | 2 ± 0.041
CUUCAA | 2.023 ± 0.0088 | 2.05 ± 0.042
CUUCAU | 2 ± 0.0049 | 1.99 ± 0.037
CUUCAG | 2.027 ± 0.015 | 2.099 ± 0.011
CUUCAC | 2.027 ± 0.0051 | 1.988 ± 0.011
CUGCCG | 2.038 ± 0.012 | 2.075 ± 0.0058
CUGCCA | 2.05 ± 0.027 | 2.04 ± 0.033
CUGCCU | 2.034 ± 0.011 | 2.003 ± 0.006
AUGUCU | 1.993 ± 0.017 | 1.99 ± 0.02
AUGUCA | 1.979 ± 0.0033 | 2.01 ± 0.016
AUGUCG | 1.93 ± 0.0088 | 1.99 ± 0.027
AUGUCC | 2.04 ± 0.026 | 2.0107 ± 0.0015
GUUCGA | 2.018 ± 0.0029 | 2.001 ± 0.015
GUGUCC | 1.97 ± 0.011 | 1.99 ± 0.034
GUGUCG | 2.006 ± 0.0093 | 2.06 ± 0.037
GUGUCU | 1.982 ± 0.0041 | 1.98 ± 0.045
UUUAGU | 1.957 ± 0.0051 | 1.99 ± 0.015
UUUAGC | 1.998 ± 0.005 | 2 ± 0.044
UUUAGG | 1.879 ± 0.012 | 2 ± 0.045
UUUAGA | 1.99 ± 0.02 | 2.03 ± 0.025
AUUCGC | 2.039 ± 0.0092 | 2.06 ± 0.041
AUUCGA | 1.992 ± 0.0073 | 2.03 ± 0.035
UUGAUU | 2.017 ± 0.012 | 2.027 ± 0.013
UUGAUC | 2.051 ± 0.0013 | 2.01 ± 0.022

Variant | normalized RNA/DNA level without ligand (log10) ((6R,S)-folinic acid [1]) | normalized RNA/DNA level with ligand (log10) ((6R,S)-folinic acid [2])
UUGGAU | 1.971 ± 0.012 | 2.022 ± 0.012
UUGGAC | 1.972 ± 0.015 | 1.98 ± 0.032
UUUCAA | 1.997 ± 0.0084 | 2.01 ± 0.029
UUUCAC | 2.0237 ± 0.0014 | 2.0028 ± 0.00095
UUUCAU | 1.993 ± 0.0093 | 2.02 ± 0.022
CUGGUA | 1.95 ± 0.023 | 1.98 ± 0.034
CUGGUC | 2.057 ± 0.0038 | 2.04 ± 0.044
CUGGUU | 1.97 ± 0.04 | 1.99 ± 0.046
CUGGUG | 1.982 ± 0.0025 | 2.04 ± 0.037
GUUAUU | 2.016 ± 0.0067 | 2.007 ± 0.02
GUUAUC | 2.027 ± 0.012 | 2.044 ± 0.0079
UUGGCA | 2.013 ± 0.011 | 2.06 ± 0.035
UUGGCU | 2.055 ± 0.0023 | 2.04 ± 0.041
UUGGCC | 2.046 ± 0.019 | 2.03 ± 0.05
UUGGCG | 1.8766 ± 0.00065 | 2.03 ± 0.062
GUGGCG | 1.993 ± 0.0028 | 2.015 ± 0.0038
GUGGCU | 2.047 ± 0.0085 | 2.06 ± 0.028
GUGCAU | 1.973 ± 0.0054 | 2.02 ± 0.051
GUGCAC | 1.935 ± 0.0098 | 2 ± 0.0049
GUGCAG | 1.931 ± 0.0076 | 2.01 ± 0.021
GUGCAA | 1.975 ± 0.0071 | 1.999 ± 0.01
CUUAUG | 2.013 ± 0.005 | 2.0211 ± 0.00067
CUUAUA | 1.961 ± 0.019 | 2 ± 0.029
CUUAUC | 2.089 ± 0.009 | 2.08 ± 0.033

Variant | normalized RNA/DNA level without ligand (log10) ((6R,S)-folinic acid [1]) | normalized RNA/DNA level with ligand (log10) ((6R,S)-folinic acid [2])
GUUAAG | 1.96 ± 0.006 | 2.02 ± 0.027
GUUAAU | 1.9687 ± 4.4e-05 | 2.04 ± 0.026
GUUAAA | 1.991 ± 0.011 | 2 ± 0.039
GUUAAC | 1.976 ± 0.0067 | 2.024 ± 0.015
UUGUUU | 2.065 ± 0.018 | 2.08 ± 0.035
UUGUUG | 1.96 ± 0.026 | 2.05 ± 0.027
UUGUUC | 2.056 ± 0.017 | 2.08 ± 0.047
GUGCCC | 2.032 ± 0.012 | 2.02 ± 0.074
GUGCCA | 2.057 ± 0.015 | 2.006 ± 0.0095
GUGCCU | 2.02 ± 0.024 | 1.98 ± 0.039
CUUACA | 2.004 ± 0.01 | 2 ± 0.022
CUUACG | 2.007 ± 0.0022 | 2 ± 0.037
CUUACU | 2 ± 0.023 | 2.02 ± 0.047
CUUACC | 2.022 ± 0.0014 | 1.995 ± 0.016
CUGGCA | 1.999 ± 0.0069 | 1.98 ± 0.042
CUGGCG | 1.99 ± 0.026 | 2.03 ± 0.037
CUGGCC | 2.079 ± 0.011 | 2.03 ± 0.032
UUGCCU | 2.07 ± 0.028 | 2.07 ± 0.024
UUGCCG | 1.974 ± 0.0045 | 2.03 ± 0.038
UUGCCA | 2.024 ± 0.013 | 2.042 ± 0.02
UUGCCC | 2.04 ± 0.031 | 2.03 ± 0.036
AUGUUA | 1.938 ± 1.9e-05 | 1.98 ± 0.057
AUGUUG | 1.889 ± 0.01 | 2.017 ± 0.019
AUGUUU | 1.976 ± 0.015 | 2.004 ± 0.011

Variant | normalized RNA/DNA level without ligand (log10) ((6R,S)-folinic acid [1]) | normalized RNA/DNA level with ligand (log10) ((6R,S)-folinic acid [2])
AUGUUC | 2.0332 ± 0.0018 | 2.01 ± 0.021
AUGUAC | 1.959 ± 0.01 | 1.98 ± 0.025
AUGUAU | 1.94 ± 0.025 | 2.03 ± 0.027
AUGUAA | 1.938 ± 0.011 | 2 ± 0.023
CUGUAC | 1.992 ± 0.017 | 2.013 ± 0.013
CUGUAA | 1.958 ± 0.018 | 2.02 ± 0.037
CUGUAG | 1.925 ± 0.016 | 2.02 ± 0.041
GUGUUC | 2.01 ± 0.031 | 2.012 ± 0.0073
GUGUUU | 2.03 ± 0.027 | 2.05 ± 0.036
GUGUUG | 1.9429 ± 0.0015 | 2.014 ± 0.015
GUGUUA | 1.988 ± 0.015 | 2.01 ± 0.025
CUGCGC | 2.06 ± 0.0038 | 2.009 ± 0.019
CUGCGA | 2.053 ± 0.0059 | 2.06 ± 0.037
CUGCGG | 2.052 ± 0.0072 | 2.066 ± 0.0066
CUGCGU | 2.059 ± 0.011 | 2.06 ± 0.039
GUGUAU | 1.962 ± 0.0048 | 2.01 ± 0.022
CUGUGA | 2.028 ± 0.0096 | 2.04 ± 0.035
CUGUGC | 2.01 ± 0.05 | 2.02 ± 0.028
CUGUGU | 1.997 ± 0.017 | 2.011 ± 0.004
CUGUGG | 1.96 ± 0.0026 | 2.059 ± 0.016
UUUAUU | 1.988 ± 0.0096 | 2.03 ± 0.033
UUUAUC | 2.103 ± 0.0028 | 2.065 ± 0.016
UUUAUA | 1.993 ± 0.015 | 2 ± 0.03
GUUAGA | 2 ± 0.02 | 2.021 ± 0.0089

Variant | normalized RNA/DNA level without ligand (log10) ((6R,S)-folinic acid [1]) | normalized RNA/DNA level with ligand (log10) ((6R,S)-folinic acid [2])
GUUAGU | 1.979 ± 0.0095 | 2.03 ± 0.044
GUUAGC | 1.92 ± 0.025 | 1.99 ± 0.02
GUGCGC | 1.965 ± 0.01 | 2.01 ± 0.057
GUGCGG | 1.968 ± 0.014 | 2.0481 ± 0.00061
UUUAAA | 1.934 ± 0.0037 | 1.97 ± 0.047
UUUAAC | 1.978 ± 0.011 | 1.99 ± 0.028
UUUAAU | 1.975 ± 0.0038 | 1.988 ± 0.014
AUUAAU | 1.9586 ± 0.0017 | 1.98 ± 0.033
AUUAAG | 1.931 ± 0.011 | 2.01 ± 0.026
AUUAAC | 2.011 ± 0.0026 | 2.03 ± 0.033
GUGGGG | 1.94 ± 0.026 | 2.03 ± 0.028
GUGGGU | 1.98 ± 0.022 | 2 ± 0.045
AUGGGU | 1.82 ± 0.006 | 1.998 ± 0.0034
AUGGGC | 2.014 ± 0.0055 | 2.03 ± 0.041
UUGCUU | 2.016 ± 0.013 | 2.04 ± 0.04
UUGCUC | 2.046 ± 0.01 | 2.02 ± 0.052
UUGCUG | 1.978 ± 0.004 | 2.01 ± 0.05
GUUCCU | 2.03 ± 0.0037 | 2.04 ± 0.045
GUUCCG | 2.032 ± 0.011 | 2.02 ± 0.04
GUUCCC | 2.075 ± 0.018 | 2.052 ± 0.017
